# How the values were obtained:
# [1] = biological target: T1, MHC class I molecule HLA-B*0702 (iTopia plate-bound monomer) (biotin (bound to streptavidin-coated plate)); assay: iTopia off-rate assay, 37 C; fit R^2 0.69
# T1 construct: Commercial iTopia system; also called B7
# Experimental: (§1) The 9 mers were tested for Peptide Binding, Off Rate and Affinity using iTopia Epitope Discovery System in accordance with the manufacturer's instructions. Briefly, 96 well microtitre plates coated with MHC molecules representing different MHC alleles are used to identify candidate peptides. […] Determinations are performed in duplicate using an ELISA plate reader and included allele specific positive controls.
# (§2) A one-phase exponential decay curve, with a plateau given equal to 0, was generated using GraphPad Prism® software, which calculated the t1/2 and goodness-of-fit, as measured by r², for each peptide.
# [2] = biological target: T2, MHC class I molecule HLA-A*0201 (iTopia plate-bound monomer) (biotin (bound to streptavidin-coated plate)); assay: iTopia off-rate assay, 37 C; fit R^2 0.78
# T2 construct: also called A2
# Experimental: as §1, §2
# [3] = biological target: T2, MHC class I molecule HLA-A*0201 (iTopia …); assay: iTopia off-rate assay, 37 C; fit R^2 0.72
# Experimental: as §1, §2
# [4] = biological target: T2, MHC class I molecule HLA-A*0201 (iTopia …); assay: iTopia off-rate assay, 37 C; fit R^2 0.64
# Experimental: as §1, §2
# [5] = biological target: T2, MHC class I molecule HLA-A*0201 (iTopia …); assay: iTopia off-rate assay, 37 C; fit R^2 0.08
# Experimental: as §1, §2
# [6] = biological target: T2, MHC class I molecule HLA-A*0201 (iTopia …); assay: iTopia off-rate assay, 37 C; fit R^2 0.02
# Experimental: as §1, §2
# [7] = biological target: T2, MHC class I molecule HLA-A*0201 (iTopia …); assay: iTopia off-rate assay, 37 C; fit R^2 0.05
# Experimental: as §1, §2
# [8] = biological target: T2, MHC class I molecule HLA-A*0201 (iTopia …); assay: iTopia off-rate assay, 37 C; fit R^2 0.8
# Experimental: as §1, §2
# [9] = biological target: T2, MHC class I molecule HLA-A*0201 (iTopia …); assay: iTopia off-rate assay, 37 C; fit R^2 0.99
# Experimental: as §1, §2
# [10] = biological target: T2, MHC class I molecule HLA-A*0201 (iTopia …); assay: iTopia off-rate assay, 37 C; fit R^2 0.82
# Experimental: as §1, §2
# [11] = biological target: T2, MHC class I molecule HLA-A*0201 (iTopia …); assay: iTopia off-rate assay, 37 C; fit R^2 0.96
# Experimental: as §1, §2
# [12] = biological target: T2, MHC class I molecule HLA-A*0201 (iTopia …); assay: iTopia off-rate assay, 37 C; fit R^2 0.68
# Experimental: as §1, §2
# [13] = biological target: T2, MHC class I molecule HLA-A*0201 (iTopia …); assay: iTopia off-rate assay, 37 C; fit R^2 0.79
# Experimental: as §1, §2
# [14] = biological target: T1, MHC class I molecule HLA-B*0702 (iTopia …); assay: iTopia off-rate assay, 37 C; fit R^2 0.44
# Experimental: as §1, §2
# [15] = biological target: T2, MHC class I molecule HLA-A*0201 (iTopia …); assay: iTopia off-rate assay, 37 C; fit R^2 0.92
# Experimental: as §1, §2
# [16] = biological target: T2, MHC class I molecule HLA-A*0201 (iTopia …); assay: iTopia off-rate assay, 37 C; fit R^2 0.89
# Experimental: as §1, §2
# [17] = biological target: T2, MHC class I molecule HLA-A*0201 (iTopia …); assay: iTopia off-rate assay, 37 C; fit R^2 0.7
# Experimental: as §1, §2
# [18] = biological target: T2, MHC class I molecule HLA-A*0201 (iTopia …); assay: iTopia off-rate assay, 37 C; fit R^2 0.9
# Experimental: as §1, §2
# [19] = biological target: T1, MHC class I molecule HLA-B*0702 (iTopia …); assay: iTopia off-rate assay, 37 C; fit R^2 0.11
# Experimental: as §1, §2
# [20] = biological target: T2, MHC class I molecule HLA-A*0201 (iTopia …); assay: iTopia off-rate assay, 37 C; fit R^2 0.57
# Experimental: as §1, §2
# [21] = biological target: T3, MHC class I molecule HLA-A*0301 (iTopia plate-bound monomer) (biotin (bound to streptavidin-coated plate)); assay: iTopia off-rate assay, 37 C; fit R^2 0.9
# T3 construct: also called A3
# Experimental: as §1, §2
# [22] = biological target: T1, MHC class I molecule HLA-B*0702 (iTopia …); assay: iTopia off-rate assay, 37 C; fit R^2 0.79
# Experimental: as §1, §2
# [23] = biological target: T2, MHC class I molecule HLA-A*0201 (iTopia …); assay: iTopia off-rate assay, 37 C; fit R^2 0.74
# Experimental: as §1, §2
# [24] = biological target: T2, MHC class I molecule HLA-A*0201 (iTopia …); assay: iTopia off-rate assay, 37 C; fit R^2 0.6
# Experimental: as §1, §2
# [25] = biological target: T2, MHC class I molecule HLA-A*0201 (iTopia …); assay: iTopia off-rate assay, 37 C; fit R^2 0.85
# Experimental: as §1, §2
# [26] = biological target: T3, MHC class I molecule HLA-A*0301 (iTopia …); assay: iTopia off-rate assay, 37 C; fit R^2 0.94
# Experimental: as §1, §2
# [27] = biological target: T3, MHC class I molecule HLA-A*0301 (iTopia …); assay: iTopia off-rate assay, 37 C; fit R^2 0.95
# Experimental: as §1, §2
# [28] = biological target: T2, MHC class I molecule HLA-A*0201 (iTopia …); assay: iTopia off-rate assay, 37 C; fit R^2 0.77
# Experimental: as §1, §2
# [29] = biological target: T1, MHC class I molecule HLA-B*0702 (iTopia …); assay: iTopia off-rate assay, 37 C; fit R^2 0.68
# Experimental: as §1, §2
# [30] = biological target: T2, MHC class I molecule HLA-A*0201 (iTopia …); assay: iTopia off-rate assay, 37 C; fit R^2 0.66
# Experimental: as §1, §2
# [31] = biological target: T2, MHC class I molecule HLA-A*0201 (iTopia …); assay: iTopia off-rate assay, 37 C; fit R^2 0.33
# Experimental: as §1, §2
# [32] = biological target: T2, MHC class I molecule HLA-A*0201 (iTopia …); assay: iTopia off-rate assay, 37 C; fit R^2 0.83
# Experimental: as §1, §2
# [33] = biological target: T1, MHC class I molecule HLA-B*0702 (iTopia …); assay: iTopia off-rate assay, 37 C; fit R^2 0.95
# Experimental: as §1, §2
# [34] = biological target: T2, MHC class I molecule HLA-A*0201 (iTopia …); assay: iTopia off-rate assay, 37 C; fit R^2 0.31
# Experimental: as §1, §2
binder,measurement,setting,value
SYVFLGIVL (also called Peptide No 178) [5T4 9-mer peptide 178 SYVFLGIVL],t½ half life,[1],0.9 h
same,t½ half life,[2],5.1 h
LSHNPLADL (also called Peptide No 75) [5T4 9-mer peptide 75 LSHNPLADL],t½ half life,[3],1.3 h
ELAALNLSG (also called Peptide No 60) [5T4 9-mer peptide 60 ELAALNLSG],t½ half life,[4],1.6 h
TGNQLAVLP (also called Peptide No 50) [5T4 9-mer peptide 50 TGNQLAVLP],t½ half life,[5],8.7 h
ALKVLHNGT (also called Peptide No 135) [5T4 9-mer peptide 135 ALKVLHNGT],t½ half life,[4],1.5 h
SNASVSAPS (also called Peptide No 83) [5T4 9-mer peptide 83 SNASVSAPS],t½ half life,[6],15.8 h
IKKWMHNIR (also called Peptide No 191) [5T4 9-mer peptide 191 IKKWMHNIR],t½ half life,[7],14.6 h
LTHLESLHL [5T4 9-mer peptide 129 LTHLESLHL],t½ half life,[8],1 h
LLGWVSSSS (also called Peptide No 13) [5T4 9-mer peptide 13 LLGWVSSSS],t½ half life,[9],1.8 h
RHLDLSNNS [5T4 9-mer peptide 119 RHLDLSNNS],t½ half life,[10],1.1 h
SLVSLTYVS (also called Peptide No 123) [5T4 9-mer peptide 123 SLVSLTYVS],t½ half life,[11],0.9 h
RDACRDHME (also called Peptide No 195) [5T4 9-mer peptide 195 RDACRDHME],t½ half life,[12],3 h
HFLYLPRDV [5T4 9-mer peptide 111 HFLYLPRDV],t½ half life,[10],2.9 h
LDLSHNPLA (also called Peptide No 74) [5T4 9-mer peptide 74 LDLSHNPLA],t½ half life,[13],5.4 h
VRAGAFEHL (also called Peptide No 67) [5T4 9-mer peptide 67 VRAGAFEHL],t½ half life,[14],0.4 h
LVLLGWVSS (also called Peptide No 12) [5T4 9-mer peptide 12 LVLLGWVSS],t½ half life,[15],2.6 h
CVNRNLTEV (also called Peptide No 39) [5T4 9-mer peptide 39 CVNRNLTEV],t½ half life,[16],1.3 h
same,t½ half life,[14],0.7 h
LTNLSSNSD [5T4 9-mer peptide 206 LTNLSSNSD],t½ half life,[17],0.7 h
ARLALVLLG (also called Peptide No 10) [5T4 9-mer peptide 10 ARLALVLLG],t½ half life,[17],1.2 h
NQLAVLPAG (also called Peptide No 51) [5T4 9-mer peptide 51 NQLAVLPAG],t½ half life,[15],3.2 h
LSGSRLDEV (also called Peptide No 63) [5T4 9-mer peptide 63 LSGSRLDEV],t½ half life,[18],0.5 h
same,t½ half life,[19],2.9 h
YLNRKGIKK (also called Peptide No 188) [5T4 9-mer peptide 188 YLNRKGIKK],t½ half life,[20],6.5 h
same,t½ half life,[21],0.7 h
same,t½ half life,[22],3.3 h
FLTGNQLAV (also called Peptide No 49) [5T4 9-mer peptide 49 FLTGNQLAV],t½ half life,[23],10.6 h
YEINADPRL (also called Peptide No 202) [5T4 9-mer peptide 202 YEINADPRL],t½ half life,[8],0.6 h
MHNIRDACR (also called Peptide No 193) [5T4 9-mer peptide 193 MHNIRDACR],t½ half life,[24],5.3 h
SNHFLYLPR (also called Peptide No 110) [5T4 9-mer peptide 110 SNHFLYLPR],t½ half life,[25],1.2 h
same,t½ half life,[26],0.9 h
PPSLQTSYV (also called Peptide No 175) [5T4 9-mer peptide 175 PPSLQTSYV],t½ half life,[5],12.7 h
VSLTYVSFR [5T4 9-mer peptide 124 VSLTYVSFR],t½ half life,[27],0.2 h
LQGLRRLEL [5T4 9-mer peptide 105 LQGLRRLEL],t½ half life,[28],2.1 h
same,t½ half life,[29],0.2 h
LYLPRDVLA (also called Peptide No 112) [5T4 9-mer peptide 112 LYLPRDVLA],t½ half life,[30],3.4 h
SLQTSYVFL [5T4 9-mer peptide 176 SLQTSYVFL],t½ half life,[31],12.4 h
RNLTHLESL (also called Peptide No 128) [5T4 9-mer peptide 128 RNLTHLESL],t½ half life,[32],0.9 h
LPAYVRNLF (also called Peptide No 45) [5T4 9-mer peptide 45 LPAYVRNLF],t½ half life,[33],1.7 h
RSFEGMVVA (also called Peptide No 97) [5T4 9-mer peptide 97 RSFEGMVVA],t½ half life,[9],0.7 h
AARTVKCVN (also called Peptide No 36) [5T4 9-mer peptide 36 AARTVKCVN],t½ half life,[1],1.4 h
same,t½ half life,[34],11.1 h
FEGMVVAAL (also called Peptide No 98) [5T4 9-mer peptide 98 FEGMVVAAL],t½ half life,[11],1.1 h
